assay: soluble on expression in E. coli; label from the status in PepcDB or PDB records

Sequence | soluble on expression in E. coli
MMSKQPTSKRQWRDGAAPSAKKTAKPFKSKARPKDETGKTASQPYGQKASDGIKPQNVPKQRAAKAKKLVVRNPNQKIMEHARDLKERRSDLSRMEPERLQKVLAASGVGSRREMEEWITNGWITVNGKTAQLGDKVTPDDHVTVKGSIIKLKWADRLPRIILYYKQEGEIVSRDDPQGRVSIFDRLPQAASSRWVAIGRLDINTSGLLILTTSGELVQRFAHPSFEVEREYAVRVLGGLTGEQMRVLTEEGVMLEDGLAKVERIREQGGEGANKWYNVVIKEGRNREVRRIFESQGLTVSRLVRIGFGPIGLPNRLKRGQFYELNPAEVANIIKWADMLLPGERRRKKA | not soluble
MMSSGPLDPSDVTLFTSYPSPIVVPLEFIEEQSKSSREELEIDESGLYIMSKALEEFMRTVMRGATQNGSRLLDYDSIAEFFANSEFRALKDFFPERVRFDEIESEILPTRATGPSNSS | not soluble
MMSVPQAREARRIDLGEMGWGEVQVDFYNPLVKRREIVMILHHELKPTPMRIMLRQKLAEVLGVDIKRIYIRYIKTGYGAGLSKVRVHVYDSPERALSFEPKYIIERNGGVNPFEEAEG | soluble
MMTQVTESAVRSALSRVEDPEIGKPITELGMVKSVSIDGSDVQVEVYLTIAACPMKTTIVTNTEAALKDIDGVGQVHVTTDVMSDEQRRALRVSLRGETSEPVIPFAQPGSTTRVYAVASGKGGVGKSSMTVNLAAALAKRGLSVGILDADIYGHSVPGMLGSDQRPHQVDDMIMPPQAHGVKMISIAHFTEGNAPVVWRGPMLHRAIQQFLTDVFWGDLDILLLDLPPGTGDIAITVAQLIPNAELLIVTTPQAAAAEVAERAGTISVQTNQKVAGVIENMSAMVLPDGTTMDVFGTGGGQKIADRLTAVTGEEVKVIGSVPLDPNLRIGGDVGNPIAISEPHSPTAAAINEIAEHLAHRKVSLVGKTLGLGVKLEHHHHHH | soluble
MMVDTGVDHRAVSSHDGPDAGRRVFGAADPRFACVVRAFASMFPGRRFGGGALAVYLDGQPVVDVWKGWADRAGWVPWSADSAPMVFSATKGMTATVIHRLADRGLIDYEAPVAEYWPAFGANGKATLTVRDVMRHQAGLSGLRGATQQDLLDHVVMEERLAAAVPGRLLGKSAYHALTFGWLMSGLARAVTGKDMRLLFREELAEPLDTDGLHLGRPPADAPTRVAEIIMPQDIAANAVLTCAMRRLAHRFSGGFRSMYFPGAIAAVQGEAPLLDAEIPAANGVATARALARMYGAIANGGEIDGIRFLSRELVTGLTRNRRQVLPDRNLLVPLNFHLGYHGMPIGNVMPGFGHVGLGGSIGWTDPETGVAFALVHNRLLSPLEHHHHHH | not soluble
MMYQVKGYFSSLKGSYYEIGKQQGEFVKQNPYLIPQFIHEENVISNNHWTESRNILNKHCPGINEEIEGFCEVLKIPSKNMMYYYQTLLKAGCSHCAVLPKKTDLEHTYVLRNYDLSPVIDDMRFCSTHVEGAYAHSGFSTQYFGRTEGINEHGLAVTFSACGQPVGNIAGLRKPMVSGLQCFAVIRLLLEKCKNVQEAKLLIEEIPIASNINLIIADPLNAAYIEIFDGHKSTITIDGEKQAFIVSTNHAVSSSIQKLNNRKLEQSTKRYHLLHEHLNRCEQVSIESLKKLVEEEYPAGLTVHNYEEWFGTLHSVLFDLHDRTMKICFGSPLLNDWYSLKVGGSMPFSEVNVNFKNKTYTDFWKEDKNELIPKRLEHHHHHH | soluble
MNAEDVKGFFASRESLDMEQYLVLDYYLESVGDIETALAHFCSEQSTAQWKRVGVDEDFRLVHAAKVIDYEVIEELEQLSYPVKHSETGKIHACRVTIAHPHCNFGPKIPNLLTAVCGEGTYFTPGVPVVKLMDIHFPDTYLADFEGPKFGIEGLRDILNAHGRPIFFGVVKPNIGLSPGEFAEIAYQSWLGGLDIAKDDEMLADVTWSSIEERAAHLGKARRKAEAETGEPKIYLANITDEVDSLMEKHDVAVRNGANALLINALPVGLSAVRMLSNYTQVPLIGHFPFIASFSRMEKYGIHSKVMTKLQRLAGLDAVIMPGFGDRMMTPEEEVLENVIECTKPMGRIKPCLPVPGGSDSALTLQTVYEKVGNVDFGFVPGRGVFGHPMGPKAGAKSIRQAWEAIEQGISIETWAETHPELQAMVDQSLLKKQD | soluble
MNAITPTPGIDKEAFDRAANAVRRLCGWHIFPIIEETITLDSPGDSLLVLPTKHLVEIINVTIDGTTYPLSDFRSSPDGLLVKRHGRFPRGIAMVTVTMKHGYEKPTEILGVINDMARRANESNLTQLNVGGISVGATNSATPQSSEWRIVDELRLGPLP | not soluble
MNALARRAAGLLLSTICLPLTALAADPQPTHEFTLDNGLKVVVREDHRAPVVVSQIWYKVGSSYETPGQTGLSHALEHMMFKGSSKTGPGESSLILRDLGAEENAFTSDDYTAYYQVLARDRLSVALELEADRMATLKLPADEFGREIEVIKEERRLRTDDKPMGKAFERFKAMAYPASGYHTPTIGWMADLERMKVEELRHWYESWYTPNNATLVVVGDVQPDEVKALAERFFGPIPRRDVPPSKKPLELAEPGERKITLHVKTQLPSLIYGFNVPSVATAEDPRSANALRLIAALLDGGYSARIPTRLERGEELVSGASSRYDAFARGDSLFMISATPNMQKKKTLADVEAGIWRLLDDLKTKAPSAEELERVRAQVIAGVVYERDSITSQATMIGELETVGLSWKLMDKELEDLQSVTPQDIQKAANTYFTRERLSVAHVLPEEKAK | not soluble
MNALLVMTGLAAAASGRIGAACSALLGGGAVRGRSAGASGDEAQAQDADSSPEADRLEDVSPSGAFAGVIAALEVQAPVRDVPPPTDDLANEGEDIARSRVAATAADAVTSGGAARSPRDALGGLAFGQSPMIEAGKALYVSPVRDDERLRNGERFRDGERLRDGADGARAGMRDAASAAGAASTSRVGQPGAGAPRDQQALSQSPGQQAADKPPAGAPGPQEGTIGAPVDMPRAAARAHSPQSAPVRLGAELMSVLGERIDVQLQRGVERAVIRLDPQSMGTLHIAIRHEGGSVQIQMIASHEEVARQLQTMSEALRQDLSSRHHGDVTVVVRHGQGMEQGAGHGEGGAHREEKRPGAALAEADVPDGDDGFRLDGRDVI | not soluble
MNANVYQHFRKDEHPFIDTVGDWLEQVEMQYAPYLTDFLDPRQAYILETLIRQNSDLSFTFYGGYEQAERKRCLIYPAYYIPEETDFGVVLFEIIYPSKFATLSHGKILGTLMNVGVRREAFGDIISDGDKWQVFIAQEVAGFVVNQVDKIGKITVRLEERDYTQILIPKDGWQEERTTMSSLRLDSVISAVFNISRQRSKQLIESGKVKVNWTETTRPDFALDLLDIVSIRGFGRLQIQELEGKTKKEKFRVLLGVLRK | not soluble
MNAPIEPHRFTLEPFEAHRFANLCGQLDEHLRLIEQRLDIEIRNRGNQFELIGETTQTRSAENLLRRLYRETKGTELTPDMVHLFLQESGVDGLDNHPAAEVGVSLRTKKGMIRPRGLNQQRYVKEVLSNDINFGIGPAGTGKTYLAVACAVDALEREQIRRILLVRPAVEAGEKLGFLPGDLAQKIDPYLRPLYDALYEMLGFEYVAKLIEKQVIEVAPLAYMRGRTLNNSFIILDESQNTTVEQMKMFLTRIGFGSTAVITGDITQVDLPKGTRSGLTHVIDVLKDVPGISFTHFKPKDVVRHPLVQRIVEAYERFDDQLSDGPSGNNGYSRDKNRNA | not soluble
MNATIQTIPELLIQTRGNQTEVARMLSCARGTVLKYNRDSKGERHVIVNGVLMVKQGKRGRP | not soluble
MNAYQKTIGRAVTLSGVGIHGGAPASARLLPADADTGILFQRSDIKDSAPVCAHVSQIGATDLCTSLGAREARIDTVEHLMAAISALGIDNLVVEIEGPEVPILDGTSARFIEAVDSVGVVTQDAKRRFIRILKTVRVEAGNSWGEFRPYDGTRFEVEIDFECPLIGRQKFAHDVDEETFRKELSTARTFGFMKDVERLWAAGLALGASLDNSLVIGDDNSIVNADGLRFKDEFVRHKTLDAVGDLALAGLPFIGCFSSYRGGHRLNSEAVKALLSDETAFEIIEALEHHHHHH | soluble
